Literature values, collected in patent US20040047891A1, “Systems devices and methods for intrabody targeted delivery and reloading of therapeutic agents” (priority 2003, published 2004).
Read-outs that look alike come from different tables or passages of the source.

Assays:
ET-A receptor = target: T1, ET-A receptor (Homo sapiens, UniProt P25101)
T1 sequence (P25101 21-427): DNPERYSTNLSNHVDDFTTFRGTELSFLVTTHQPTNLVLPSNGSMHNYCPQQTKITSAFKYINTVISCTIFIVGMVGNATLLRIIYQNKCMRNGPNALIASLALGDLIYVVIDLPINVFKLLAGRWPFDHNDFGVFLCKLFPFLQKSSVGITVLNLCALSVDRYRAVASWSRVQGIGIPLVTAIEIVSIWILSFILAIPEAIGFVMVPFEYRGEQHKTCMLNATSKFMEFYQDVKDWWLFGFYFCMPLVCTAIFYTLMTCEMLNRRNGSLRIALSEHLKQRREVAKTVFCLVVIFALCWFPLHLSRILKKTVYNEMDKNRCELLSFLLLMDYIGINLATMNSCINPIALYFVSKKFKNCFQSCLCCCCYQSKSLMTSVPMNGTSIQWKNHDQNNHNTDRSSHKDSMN

| Time to dissociate from the ET-A receptor (ET-A receptor) | Compound | Koff (pH 2) | Koff (pH 3) | Koff (pH 5) | Koff (pH 7) | Koff (pH 1.7) | Koff (pH 9.2) | Koff (pH 10.5) |
| --- | --- | --- | --- | --- | --- | --- | --- | --- |
|  | Avidin: biotin-binding protein, source chicken egg white; member of the biotin-avidin binding pair | 200 sec^−1 · 10^7 | 9 sec^−1 · 10^7 | 0.9 sec^−1 · 10^7 | 0.4 sec^−1 · 10^7 |  |  |  |
|  | Streptavidin: avidin derivative, source fermentation, no carbohydrates |  | 19 sec^−1 · 10^7 | 8.7 sec^−1 · 10^7 | 28 sec^−1 · 10^7 | 35 sec^−1 · 10^7 | 64 sec^−1 · 10^7 | 100 sec^−1 · 10^7 |
| ≤ 2 h | CCCCN(CCCC)C(=O)CN1C[C@H](c2ccc3c(c2)OCO3)[C@@H](C(=O)O)[C@@H]1c1ccc(OC)cc1 [ABT-627] |  |  |  |  |  |  |  |
